{"source": "the Immune Epitope Database (IEDB)", "experiment_in_all_cases": "IEDB peptide-MHC binding, purified MHC/competitive/fluorescence; filed as Kd, often an IC50 or EC50 that approximates it; ≥ and ≤ were set here for values at or beyond the usual limits of such assays", "conditions_in_all_cases": "source organism: Plasmodium falciparum 3D7", "key": {"HLA-A*03:01": {"target": "HLA-A*03:01"}, "HLA-A*01:01": {"target": "HLA-A*01:01"}, "HLA-B*07:02": {"target": "HLA-B*07:02"}, "HLA-A*02:01": {"target": "HLA-A*02:01"}, "HLA-A*24:02": {"target": "HLA-A*24:02"}, "HLA-B*44:02": {"target": "HLA-B*44:02"}}}
{"sequence": "RSSGSTFSIK", "values": [{"measurement": "Kd", "setting": "HLA-A*03:01", "result": 0.326, "unit": "µM"}]}
{"sequence": "ITNKNKVTIY", "values": [{"measurement": "Kd", "setting": "HLA-A*03:01", "result": 8.72, "unit": "µM"}, {"measurement": "Kd", "setting": "HLA-A*01:01", "result": "≥ 1000", "unit": "µM"}]}
{"sequence": "FPPNTFDAL", "values": [{"measurement": "Kd", "setting": "HLA-B*07:02", "result": 2.72, "unit": "µM"}]}
{"sequence": "NNNFRNNMY", "values": [{"measurement": "Kd", "setting": "HLA-A*01:01", "result": "≥ 1000", "unit": "µM"}]}
{"sequence": "LLFQKAANL", "values": [{"measurement": "Kd", "setting": "HLA-A*02:01", "result": 1.88, "unit": "µM"}]}
{"sequence": "RLNNRSIYK", "values": [{"measurement": "Kd", "setting": "HLA-A*03:01", "result": 0.224, "unit": "µM"}]}
{"sequence": "RLNLFCFSF", "values": [{"measurement": "Kd", "setting": "HLA-A*24:02", "result": 11, "unit": "µM"}, {"measurement": "Kd", "setting": "HLA-B*44:02", "result": "≥ 1000", "unit": "µM"}]}
{"sequence": "KLPPLLNEI", "values": [{"measurement": "Kd", "setting": "HLA-A*02:01", "result": 2.66, "unit": "µM"}, {"measurement": "Kd", "setting": "HLA-A*24:02", "result": 0.0887, "unit": "µM"}]}
{"sequence": "MENEDVEFI", "values": [{"measurement": "Kd", "setting": "HLA-B*44:02", "result": "≥ 36.9", "unit": "µM"}]}
{"sequence": "FIDPQTEMFK", "values": [{"measurement": "Kd", "setting": "HLA-A*03:01", "result": 8.1, "unit": "µM"}, {"measurement": "Kd", "setting": "HLA-A*01:01", "result": "≥ 46.6", "unit": "µM"}]}
{"sequence": "KYDPRISGW", "values": [{"measurement": "Kd", "setting": "HLA-A*24:02", "result": 5.01, "unit": "µM"}]}
{"sequence": "NPVQLKSKF", "values": [{"measurement": "Kd", "setting": "HLA-B*07:02", "result": "≥ 59.6", "unit": "µM"}]}
{"sequence": "ALNLFFQNK", "values": [{"measurement": "Kd", "setting": "HLA-A*03:01", "result": 1.14, "unit": "µM"}]}
{"sequence": "FCFSFLKSSK", "values": [{"measurement": "Kd", "setting": "HLA-A*03:01", "result": 9.21, "unit": "µM"}]}
{"sequence": "RLNLFCFSFL", "values": [{"measurement": "Kd", "setting": "HLA-A*02:01", "result": "≥ 161", "unit": "µM"}, {"measurement": "Kd", "setting": "HLA-A*03:01", "result": 6.12, "unit": "µM"}, {"measurement": "Kd", "setting": "HLA-B*44:02", "result": "≥ 421", "unit": "µM"}]}
{"sequence": "NMNYKQNNF", "values": [{"measurement": "Kd", "setting": "HLA-A*24:02", "result": 14.7, "unit": "µM"}]}
{"sequence": "TSKQGSSNKY", "values": [{"measurement": "Kd", "setting": "HLA-A*01:01", "result": "≥ 1000", "unit": "µM"}]}
{"sequence": "NSPNVNKRY", "values": [{"measurement": "Kd", "setting": "HLA-A*01:01", "result": "≥ 1000", "unit": "µM"}]}
{"sequence": "TIYGKGGFQF", "values": [{"measurement": "Kd", "setting": "HLA-B*07:02", "result": "≥ 109", "unit": "µM"}]}
{"sequence": "LLNSDRRDL", "values": [{"measurement": "Kd", "setting": "HLA-B*07:02", "result": 0.2, "unit": "µM"}]}
{"sequence": "IYGKGGFQF", "values": [{"measurement": "Kd", "setting": "HLA-A*24:02", "result": 0.163, "unit": "µM"}]}
{"sequence": "TEMFKLRLNL", "values": [{"measurement": "Kd", "setting": "HLA-A*24:02", "result": "≥ 58.2", "unit": "µM"}, {"measurement": "Kd", "setting": "HLA-B*44:02", "result": "≥ 54.8", "unit": "µM"}, {"measurement": "Kd", "setting": "HLA-B*07:02", "result": "≥ 1000", "unit": "µM"}]}
{"sequence": "TEYFKNKNM", "values": [{"measurement": "Kd", "setting": "HLA-B*44:02", "result": "≥ 31.4", "unit": "µM"}]}
{"sequence": "KMKSDQYPI", "values": [{"measurement": "Kd", "setting": "HLA-A*02:01", "result": 3.07, "unit": "µM"}, {"measurement": "Kd", "setting": "HLA-A*24:02", "result": 6.9, "unit": "µM"}]}
{"sequence": "NLFEWSKTV", "values": [{"measurement": "Kd", "setting": "HLA-A*02:01", "result": 1.62, "unit": "µM"}]}
{"sequence": "ILYKNIDCV", "values": [{"measurement": "Kd", "setting": "HLA-A*02:01", "result": 1.4, "unit": "µM"}]}
{"sequence": "SILISRLTL", "values": [{"measurement": "Kd", "setting": "HLA-B*44:02", "result": "≥ 1000", "unit": "µM"}]}
{"sequence": "KLYSINSKSI", "values": [{"measurement": "Kd", "setting": "HLA-A*02:01", "result": "≥ 57.7", "unit": "µM"}, {"measurement": "Kd", "setting": "HLA-B*07:02", "result": "≥ 225", "unit": "µM"}]}
{"sequence": "YESQLGGKI", "values": [{"measurement": "Kd", "setting": "HLA-B*44:02", "result": "≥ 66.3", "unit": "µM"}]}
{"sequence": "LSSNIENIY", "values": [{"measurement": "Kd", "setting": "HLA-A*01:01", "result": "≥ 29.6", "unit": "µM"}]}
{"sequence": "NLNLCGKYTK", "values": [{"measurement": "Kd", "setting": "HLA-A*03:01", "result": "≥ 1000", "unit": "µM"}]}
{"sequence": "NSDKLDLIY", "values": [{"measurement": "Kd", "setting": "HLA-A*01:01", "result": 0.875, "unit": "µM"}]}
{"sequence": "TMANQNMNY", "values": [{"measurement": "Kd", "setting": "HLA-A*03:01", "result": 0.943, "unit": "µM"}, {"measurement": "Kd", "setting": "HLA-A*01:01", "result": 2.02, "unit": "µM"}]}
{"sequence": "SESTSTYNT", "values": [{"measurement": "Kd", "setting": "HLA-B*44:02", "result": "≥ 103", "unit": "µM"}]}
{"sequence": "QVFDYPIEK", "values": [{"measurement": "Kd", "setting": "HLA-A*03:01", "result": 1.57, "unit": "µM"}]}
{"sequence": "KEEKEINDEY", "values": [{"measurement": "Kd", "setting": "HLA-B*44:02", "result": "≥ 1000", "unit": "µM"}]}
{"sequence": "KEDDTFEVY", "values": [{"measurement": "Kd", "setting": "HLA-A*01:01", "result": "≥ 1000", "unit": "µM"}]}
{"sequence": "TTFFESVSY", "values": [{"measurement": "Kd", "setting": "HLA-A*03:01", "result": "≥ 658", "unit": "µM"}, {"measurement": "Kd", "setting": "HLA-A*01:01", "result": "≥ 338", "unit": "µM"}]}
{"sequence": "NMYQQNIPL", "values": [{"measurement": "Kd", "setting": "HLA-A*02:01", "result": "≥ 331", "unit": "µM"}]}
{"sequence": "AEISRNDLI", "values": [{"measurement": "Kd", "setting": "HLA-B*44:02", "result": 4.53, "unit": "µM"}]}
{"sequence": "FLENFNFPL", "values": [{"measurement": "Kd", "setting": "HLA-A*02:01", "result": 3.68, "unit": "µM"}, {"measurement": "Kd", "setting": "HLA-A*01:01", "result": "≥ 1000", "unit": "µM"}]}
{"sequence": "YGKGGFQFVF", "values": [{"measurement": "Kd", "setting": "HLA-A*24:02", "result": 0.231, "unit": "µM"}]}
{"sequence": "YTIGLPPYI", "values": [{"measurement": "Kd", "setting": "HLA-A*02:01", "result": 2.46, "unit": "µM"}, {"measurement": "Kd", "setting": "HLA-A*24:02", "result": 6.57, "unit": "µM"}]}
{"sequence": "NYNNDQYNI", "values": [{"measurement": "Kd", "setting": "HLA-A*24:02", "result": 6.54, "unit": "µM"}]}
{"sequence": "PFLKSGFTF", "values": [{"measurement": "Kd", "setting": "HLA-A*24:02", "result": 8.32, "unit": "µM"}]}
{"sequence": "RISGWKGDNK", "values": [{"measurement": "Kd", "setting": "HLA-A*03:01", "result": 0.548, "unit": "µM"}]}
{"sequence": "RNIISKHTSV", "values": [{"measurement": "Kd", "setting": "HLA-B*07:02", "result": "≥ 505", "unit": "µM"}]}
{"sequence": "TMANQNMNYK", "values": [{"measurement": "Kd", "setting": "HLA-A*03:01", "result": 0.209, "unit": "µM"}]}
{"sequence": "NTFDALYYV", "values": [{"measurement": "Kd", "setting": "HLA-A*02:01", "result": 8.76, "unit": "µM"}, {"measurement": "Kd", "setting": "HLA-A*01:01", "result": "≥ 1000", "unit": "µM"}]}
{"sequence": "MYHNKEFDF", "values": [{"measurement": "Kd", "setting": "HLA-A*24:02", "result": 4.51, "unit": "µM"}]}
{"sequence": "LFGDENFSF", "values": [{"measurement": "Kd", "setting": "HLA-A*24:02", "result": 5.87, "unit": "µM"}]}
